Laboratory results published in US20240174744A1 (SCIRHOM, published 2024).

T1: hiR2-FL-P533-T7 (human iRhom2 full length with deletion of P533, 3 x T7 tag) (human, UniProt Q6PJF5 1-856)
T1 construct: The change is a deletion of one residue, not a substitution
T1 sequence: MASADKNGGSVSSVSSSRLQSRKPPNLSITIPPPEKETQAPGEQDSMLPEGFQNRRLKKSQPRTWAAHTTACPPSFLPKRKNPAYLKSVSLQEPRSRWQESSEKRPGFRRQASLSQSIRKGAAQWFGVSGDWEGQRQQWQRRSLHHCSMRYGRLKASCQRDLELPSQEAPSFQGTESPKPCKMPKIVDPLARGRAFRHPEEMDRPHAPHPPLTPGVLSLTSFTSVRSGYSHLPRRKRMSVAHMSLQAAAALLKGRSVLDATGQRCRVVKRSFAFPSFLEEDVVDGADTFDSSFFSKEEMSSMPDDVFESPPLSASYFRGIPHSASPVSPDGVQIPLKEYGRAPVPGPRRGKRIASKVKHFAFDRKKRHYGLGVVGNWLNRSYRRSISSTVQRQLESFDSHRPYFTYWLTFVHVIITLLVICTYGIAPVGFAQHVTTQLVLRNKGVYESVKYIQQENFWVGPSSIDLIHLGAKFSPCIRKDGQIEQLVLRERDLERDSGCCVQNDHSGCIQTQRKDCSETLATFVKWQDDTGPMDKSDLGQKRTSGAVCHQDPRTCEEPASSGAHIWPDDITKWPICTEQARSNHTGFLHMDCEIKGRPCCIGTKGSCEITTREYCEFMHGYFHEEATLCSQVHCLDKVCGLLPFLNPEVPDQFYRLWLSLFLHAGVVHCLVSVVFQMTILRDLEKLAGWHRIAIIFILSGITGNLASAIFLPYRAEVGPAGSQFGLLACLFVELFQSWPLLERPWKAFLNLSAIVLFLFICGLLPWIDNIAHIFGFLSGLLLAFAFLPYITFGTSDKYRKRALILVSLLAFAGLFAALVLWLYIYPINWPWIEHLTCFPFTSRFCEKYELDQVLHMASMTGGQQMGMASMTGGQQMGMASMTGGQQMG


The binders below were run against T1, hiR2-FL-P533-T7 (human iRhom2 full …) (assay: FACS on cells of the row P533-, vs human iR2 wild type = 100%).
Source text: In brief, immortalized MEF-DKO-hiR2-FL-WT-T7 cells, MEF-DKO-miR2-FL-WT-T7 cells and MEF-DKO-hiR2-FL-R441K-T7, MEF-DKO-hiR2-FL-K443R-T7, MEF-DKO-hiR2-FL-V459I-T7, MEF-DKO-hiR2-FL-G481Q-T7, MEF-DKO-hiR2-FL-L488R-T7, MEF-DKO-hiR2-FL-L493I-T7, MEF-DKO-hiR2-FL-D496T-T7, MEF-DKO-hiR2-FL-H505R-T7, MEF-DKO-hiR2-FL-Q512L-T7, MEF-DKO-hiR2-FL-R513K-T7, MEF-DKO-hiR2-FL-D528N-T7, MEF-DKO-hiR2-FL-P533-T7, MEF-DKO-hiR2-FL-M534S-T7, MEF-DKO-hiR2-FL-G540S-T7, MEF-DKO-hiR2-FL-R543Q-T7, MEF-DKO-hiR2-FL-T544P-T7, MEF-DKO-hiR2-FL-G546A-T7, MEF-DKO-hiR2-FL-A547V-T7, MEF-DKO-hiR2-FL-R582Q-T7, MEF-DKO-hiR2-FL-F588L-T7, MEF-DKO-hiR2-FL-M591I-T7, MEF-DKO-hiR2-FL-E594K-T7, MEF-DKO-hiR2-FL-E626D-T7, MEF-DKO-hiR2-FL-L657I-T7, and MEF-DKO-hiR2-FL-H835Y-T7 cells were harvested with 10 mM EDTA in PBS, washed and resuspended in FACS buffer (PBS, 3% FBS, 0.05% sodium azide), and seeded in Nunc U-bottom 96-well plates (Thermo Fisher Scientific, USA) at approximately 3×10⁵ cells per well. To pellet cells and remove supernatants, the plates were centrifuged at 1,500 rpm and 4° C. for 3 minutes. For primary staining, cells were resuspended in 100 μl per well of either FACS buffer alone (controls) or the purified antibodies 3, 5, 16, 22, 34, 42, 43, 44, 48, and 50 of the present disclosure at 3 μg/ml FACS buffer and incubated on ice for 1 hour. Afterwards, plates were centrifuged at 1,500 rpm and 4° C. for 3 minutes and washed twice with 200 μl per well of FACS buffer. For secondary staining, cells were spun down and resuspended in 100 μl per well of PE-conjugated goat anti-mouse IgG F(ab′)2 detection fragment (Dianova, Germany) diluted 1:100 in FACS buffer. Protected from light, the cell suspensions were incubated on ice for 1 hour. Plates were then centrifuged at 1,500 rpm and 4° C. for 3 minutes and washed three times with 200 μl per well of FACS buffer. Finally, cells were resuspended in 150 μl per well of FACS buffer and analyzed using a BD Accuri™ C6 Plus flow cytometer (Becton Dickinson, Germany).

Row | Binder | grade of loss of binding vs wild type
1 | antibody 16 (antibody, V domains shown, Mouse IgG, kappa light chain; also called clone #16; m16) VH: QVTLKESGPGILQPSQTLSLTCSFSGFSLSTFALGVGWIRQPSGRGLEWLAHIWWDDDKYYNPALKSRLTISKDTSKNHVFLKIANVDTADTATYYCARITTYYYGMDYWGQGTSVTVSS VL: DIVLSQSPATLSVTPGDSVSLFCRASQSIGNHLHWYQQESHASPRLLIKYASQSISGIPSRFSGSGSGTDFTLSINSVETEDFGMYFCQQSYNWPLTFGAGTKLELK | 3 grade (3 => 95% loss of binding vs wild type)
2 | antibody 3 (antibody, V domains shown, Mouse IgG, kappa light chain; also called clone #3; purified antibody 3) VH: QVTLKESGPGILQPSQTLSLTCSFSGFSLTTFAMGIGWVRQPSGKGLEWLAHIWWDGEKYNNPVLKSRLTISKDTSKNQVFLRIANVDTPDTATYYCARISSIYYIIDNWGQGTSVTVSS VL: DIVLTQSPATLSVTPGHSVSLSCRASQSISNNLHWYQKKSHESPRLLIKYVSQSISGIPSRFSGSGSGTDFTLSINSVETEDFGMYFCQQSYNWPLTFGAGTKLELK | 3 grade (3 => 95% loss of binding vs wild type)
3 | antibody 43 (antibody, V domains shown, Mouse IgG, kappa light chain; also called clone #43) VH: QVALKESGPGILQPSQTLSLTCSFSGFSLSTFGMGVGWIRQSSGKGLEWLANIWWDDDKYYNPALKSRLTISKDASKNQAFLKIANVDTADTATYYCARIGNYGSNYWYFDVWGTGTTVTVSS VL: QIVLTQSPAIMSASPGERVTMTCSANSRISYMYWYQQKPGSSPRLLIYDTSNLASGVPVRFSGSGSGTSYSLTISRMEAEDAATYNCQQWSSYPLTFGAGTKLELK | 3 grade (3 => 95% loss of binding vs wild type)
4 | antibody 44 (antibody, V domains shown, Mouse IgG, kappa light chain; also called clone #44; m44) VH: QVTLKESGPGILQPSQTLSLTCSFSGFSLSTFGMGVGWIRQPSEKGLEWLAHIWWDDDKYYNPALKSRLTISKDTSKNQIFLKITNVDTAETATYYCSRIGNYGSNYWYFDVWGTGTTVTVSS VL: QIVLTQSPAVMSASPGEKVTMTCTASSSVYYMYWYQQTPGSSPRLLIYDTSNLASGVPVRFSGSGSGTSYSLTISRMEAEDAATYYCQQWNTYPLTFGAGTKLELK | 3 grade (3 => 95% loss of binding vs wild type)
5 | antibody 42 (antibody, V domains shown, Mouse IgG, kappa light chain; also called clone #42; m42) VH: QVTLKESGPGILQPSQTLSLTCSLSGFSLSTFGRGVGWIRQPSGKGLEWLAHIWWDDEKYYNPALKSRLTISKDTSKNQVFLRIANVDTADTATYYCARIQNYGSNYWYFDVWGTGTTVTVSS VL: LIVLTQSPAIMSASPGEKVTMTCGATSRISYMFWYQQKPGSSPRVLIYDTSNLASGVPVRFSGSGSGTSYSLTISRVEAEDVATYYCQQWNSYPLTFGAGTKLELK | 3 grade (3 => 95% loss of binding vs wild type)
6 | antibody 5 (antibody, V domains shown, Mouse IgG, kappa light chain; also called clone #5; purified antibody 5) VH: QVTLKESGPGILQPSQTLSLTCSFSGFSLSTFGMGVGWIRQPSGKGLEWLAHIWWDDEKYYNSALKSRLTISKATSKNQAFLKIANVDTADTATYYCARISNYGSNYWYFNVWGTGTTVTVSS VL: QVVLTQSPALMSASPGEKVTMTCSAGSSVSCMYWYQQKPGSSPRVLIYDTSNLASGVPARFTGSGSGTSYSLTISRMEAEDAASYYCQQWNSYPLTFGAGTKLELK | 3 grade (3 => 95% loss of binding vs wild type)
7 | antibody 22 (antibody, V domains shown, Mouse IgG, kappa light chain; also called clone #22; m22) VH: QVTLKESGPGILQPSQTLSLTCSFSGFSLSTFGMGVGWIRQPSGKGLEWLAHIWWDDEKYYNSALKSRLTISKATSKNQVFLKIANVDTADTATYYCARISNYGSNYWYFNVWGTGTTVTVSS VL: QVVLTQSPALMSASPGEKVTMTCSAGSSVSYMYWYQQKPGSSPRVLIYDTSNLASGVPARFTGSGSGTSYSLTISRMEAEDAATYYCQQWNSYPLTFGAGTKLELK | 3 grade (3 => 95% loss of binding vs wild type)
8 | antibody 34 (antibody, V domains shown, Mouse IgG, kappa light chain; also called clone #34; m34) VH: QVTLKESGPGILQPSQTLSLTCSFSGFSLSTFSLGVGWIRQSSGKGLEWLAHIWWDDEKYYNPALKSRLTISKDTSKNQVFLKIANVDAADTATYYCARAYYSKSYYALDYWGQGTSVTVSS VL: DIQMTQSPSSLSASLGERVSLTCRASQEISGYLSWLQQKPDGTIKRLIYAASTLDSGVPKRFSGSRSGSDYSLAISSLESEDFADYYCLQYANFPFTFGSGTKLEIK | 3 grade (3 => 95% loss of binding vs wild type)
